According to patent US20250011397A1 (HOSPITAL FOR SICK CHILDREN, published 2025):
Where two headings read alike, the source gives them in different places.

Tests used:
[1] = molecular target: T1, SARS-CoV-2 Spike, prefusion S ectodomain (BEI NR52394), His-tagged (SARS-CoV-2, UniProt P0DTC2 14-1213); assay: BLI, His-tagged Spike on Ni-NTA biosensors, 1:1 fit
T1 construct: extracellular domain; also called S protein; S glycoprotein

[2] = molecular target: T2, SARS-CoV-2 receptor binding domain (RBD), wild type, His-tagged (BEI NR52309) (SARS-CoV-2, UniProt P0DTC2 319-541); assay: RBD KD column; method and antibody format not stated
T2 construct: also called WT RBD

[3] = molecular target: T2, SARS-CoV-2 receptor binding domain …; assay: as above; remark: listed apart in the source
[4] = molecular target: T2, SARS-CoV-2 receptor binding domain …
[5] = molecular target: T2, SARS-CoV-2 receptor binding domain …; remark: listed apart in the source
[6] = molecular target: T2, SARS-CoV-2 receptor binding domain …; remark: listed apart in the source
[7] = molecular target: T2, SARS-CoV-2 receptor binding domain …; remark: listed apart in the source

| Binder | Kd [1] [nM] | koff [1] [s⁻¹] | kon [1] [M⁻¹ s⁻¹] | Kd [2] [nM] | Kd [3] [nM] | RBD binding [4] | RBD binding [5] | RBD binding [6] | RBD binding [7] |
| --- | --- | --- | --- | --- | --- | --- | --- | --- | --- |
| 4A8 IgG (antibody, V domains shown, also called IgG 4A8) VH: EVQLVESGAEVKKPGASVKVSCKVSGYTLTELSMHWVRQAPGKGLEWMGGFDPEDGETMYAQKFQGRVTMTEDTSTDTAYMELSSLRSEDTAVYYCATSTAVAGTPDLFDYYYGMDVWGQGTTVTVSS VL: EIVMTQSPLSSPVTLGQPASISCRSSQSLVHSDGNTYLSWLQQRPGQPPRLLIYKISNRFSGVPDRFSGSGAGTDFTLKISRVEAEDVGVYYCTQATQFPYTFGQGTKVDIK | 1.42 | 0.000191 | 133000 | – | – | – | – | – | – |
| mAb 236 (antibody, V domains shown, also called IgG 236) VH: QVQLVQSGAEVKKPGASVKVSCKASGGTFTSYGINWVRQAPGQGLEWMGWMNPNSGNTGYAQKFQGRVTMTRDTSTSTVYMELSSLRSEDTAVYYCASRGIQLLPRGMDVWGQGTTVTVSS VL: not shown | – | – | – | 145 | 145 | 1.2 | 1 | 0.1 | 0.2 |
| mAb 254 (antibody, V domains shown, also called IgG 254) VH: EVQLLESGGGLVQPGGSLRLSCAASGFTFSSSAMHWVRQAPGKGLEWVSAIGTGGDTYYADSVKGRFTISRDNSKNTLYLQMNSLRAEDTAVYYCAREGDGYNFYFDYWGQGTLVTVSS VL: DIQMTQSPSSLSASVGDRVTITCRASQGISSYLAWYQQKPGKAPKLLIYDASSLQIGVPSRFSGSGSGTDFTLTISSLQPEDFATYYCLQSYSTPPWTFGQGTKVEIKR | – | – | – | 127 | 127 | – | – | – | – |
| mAb 46 (antibody, V domains shown, also called IgG 46; antibody 46) VH: EVQLLESGGGLVQPGRSLRLSCAASGFTFSSYAMSWVRQAPGKGLEWVSTIYSGGSTYYADSVKGRFTISRDNSKNTLYLQMNSLRAEDTAVYYCARGDSRDAFDIWGQGTMVTVSS VL: DIQMTQSPSSLSASVGDRVTITCRASQSISSWLAWYQQKPGKAPKLLIYDASNLETGVPSRFSGSGSGTDFTLTISSLQPEDFATYYCQQSYSTPFTFGPGTKVDIKR | – | – | – | 83 | 83 | 0.2 | 0.2 | 1.3 | 1.2 |
| mAb 349 (antibody, V domains shown, also called IgG 349) VH: EVQLLESGGGLVQPGGSLRLSCAASGFTFSNYGMHWVRQAPGKGLEWVSGISSAGSITNYADSVKGRFTISRDNSKNTLYLQMNSLRAEDTAVYYCAGNHAGTTVTSEYFQHWGQGTLVTVSS VL: DIQMTQSPSSLSASVGDRVTITCRASQSISSWLAWYQQKPGKAPKLLIYDTSNLETGVPSRFSGSGSGTDFTLTISSLQPEDFATYYCQQSYTTPWTFGQGTRLEIKR | – | – | – | 74 | 74 | – | – | – | – |
| mAb 56 (antibody, V domains shown, also called IgG 56) VH: QVQLVQSGAEVKKPGASVKVSCKASGYTFTSYGISWVRQAPGQGLEWMGWISAYNGNTNYAQKLQGRVTMTRDTSTSTVYMELSSLRSEDTAVYYCARDIGPIDYWGQGTLVTVSS VL: DIQMTQSPSSLSASVGDRVTITCRASQGISSYLAWYQQKPGKAPKLLIYDASNLQSGVPSRFSGSGSGTDFTLTISSLQPEDFATYYCQQANSFPSTFGQGTKVEIKR | – | – | – | 23 | 23 | – | – | – | – |
| mAb 64 (antibody, V domains shown, also called IgG 64) VH: EVQLLESGGGLVQPGGSLRLSCAASGFPFSQHGMHWVRQAPGKGLEWVSAIDRSGSYIYYADSVKGRFTISRDNSKNTLYLQMNSLRAEDTAVYYCARDTYGGKVTYFDYWGQGTLVTVSS VL: DIQMTQSPSSLSASVGDRVTITCRASQGISSHLAWYQQKPGKAPKLLIYDASNLETGVPSRFSGSGSGTDFTLTISSLQPEDFATYYCQQTYSTPWTFGQGTKVEIKR | – | – | – | 97 | 97 | – | – | – | – |
| mAb 158 (antibody, V domains shown, also called IgG 158) VH: QVQLVQSGAEVKKPGASVKVSCKASGYTFTGYYMHWVRQAPGQGLEWMGWINPLNGGTNFAPKFQGRVTMTRDTSTSTVYMELSSLRSEDTAVYYCARDPGGSYSNDAFDIWGQGTLVTVSS VL: DIQMTQSPSSLSASVGDRVTITCRASQSISRYLNWYQQKPGKAPKLLIYDASNLESGVPSRFSGSGSGTDFTLTISSLQPEDFATYYCQQANSFPLTFGGGTKVDIKR | – | – | – | 172 | 172 | – | – | – | – |
| mAb 82 (antibody, V domains shown, also called IgG 82) VH: QVQLVQSGAEVKKPGASVKVSCKASGGSFSTSAFYWVRQAPGQGLEWMGWINPYTGGTNYAQKFQGRVTMTRDTSTSTVYMELSSLRSEDTAVYYCARSRALYGSGSYFDYWGQGTLVTVSS VL: DIQMTQSPSSLSASVGDRVTITCRASQVISNYLAWYQQKPGKAPKLLIYDASNLETGVPSRFSGSGSGTDFTLTISSLQPEDFATYYCQQSFSPPPTFGQGTRLEIKR | – | – | – | 206 | 206 | 1.4 | 0.6 | 0.6 | 0.4 |
| mAb 324 (antibody, V domains shown, also called IgG 324) VH: QVQLVQSGAEVKKPGASVKVSCKASGGTFNNYGISWVRQAPGQGLEWMGWMNPNSGNTGYAQKFQGRVTMTRDTSTSTVYMELSSLRSEDTAVYYCARVGDYGDYIVSPFDLWGRGTLVTVSS VL: DIQMTQSPSSLSASVGDRVTITCRASQSITTYLNWYQQKPGKAPKLLIYDASNLETGVPSRFSGSGSGTDFTLTISSLQPEDFATYYCQQSYSTPPTFGQGTKVEIKR | – | – | – | 111 | 111 | 1.2 | 1 | 0.1 | 0.2 |
| mAb 108 (antibody, V domains shown) VH: QVQLVQSGAEVKKPGASVKVSCKASGYIFSRYAIHWVRQAPGQGLEWMGWMNPISGNTDYAPNFQGRVTMTRDTSTSTVYMELSSLRSEDTAVYYCAKDGSQLAYLVEYFQHWGQGTLVTVSS VL: DIQMTQSPSSLSASVGDRVTITCRASQVITNNLAWYQQKPGKAPKLLIYDASTLETGVPSRFSGSGSGTDFTLTISSLQPEDFATYYCQQSYTFPYTFGQGTKVEIKR | – | – | – | 72 | 72 | – | – | – | – |
| mAb 52 (antibody, V domains shown, also called IgG 52; antibody 52) VH: QVQLVQSGAEVKKPGSSVKVSCKASGYTFTSYGISWVRQAPGQGLEWMGGIIPMFGTTNYAQKFQGRVTITADKSTSTAYMELSSLRSEDTAVYYCARDRGDTIDYWGQGTLVTVSS VL: DIQMTQSPSSLSASVGDRVTITCRASQGISNNLNWYQQKPGKAPKLLIYAASSLESGVPSRFSGSGSGTDFTLTISSLQPEDFATYYCQQGNGFPLTFGPGTKVDIKR | – | – | – | – | – | 0.5 | 0.4 | 1.3 | 0.8 |
| mAb 120 (antibody, V domains shown, also called IgG 120) VH: QVQLVQSGAEVKKPGASVKVSCKASGYTFTSYDINWVRQAPGQGLEWMGMIDPSGGSTSYAQKFQGRVTMTRDTSTSTVYMELSSLRSEDTAVYYCAKDFGGGTRYDYWYFDLWGRGTLVTVSS VL: EIVMTQSPATLSVSPGERATLSCRASQSVSSRYLAWYQQKPGQAPRLLIYGASTRATGIPARFSGSGSGTEFTLTISSLQSEDFAVYYCQQYYTTPRTFGQGTRLEIKR | – | – | – | 24 | 24 | – | – | – | – |
| mAb 160 (antibody, V domains shown, also called IgG 160) VH: QVQLVQSGAEVKKPGASVKVSCKASGYTFTGHDMHWVRQAPGQGLEWMGIINPSGGSTSYAQKFQGRVTMTRDTSTSTVYMELSSLRSEDTAVYYCARANSLRYYYGMDVWGQGTMVTVSS VL: DIQMTQSPSSLSASVGDRVTITCRASQSVSSWLAWYQQKPGKAPKLLIYAASSLQSGVPSRFSGSGSGTDFTLTISSLQPEDFATYYCQQGYTTPYTFGQGTKLEIKR | – | – | – | 7.7 | 7.7 | – | – | – | – |
| mAb 128 (antibody, V domains shown) VH: QVQLVQSGAEVKKPGASVKVSCKASGYTFTHYYMHWVRQAPGQGLEWMGIINPSSSSASYSQKFQGRVTMTRDTSTSTVYMELSSLRSEDTAVYYCARDGRYGSGSYPFDYWGQGTLVTVSS VL: DIQMTQSPSSLSASVGDRVTITCRASQNISRYLNWYQQKPGKAPKLLIYDASNLETGVPSRFSGSGSGTDFTLTISSLQPEDFATYYCQQANGFPPTFGQGTKLEIKR | – | – | – | 57 | 57 | – | – | – | – |
| mAb 178 (antibody, V domains shown, also called IgG 178) VH: QVQLVQSGAEVKKPGASVKVSCKASGYTFTDYHMHWVRQAPGQGLEWMGWINPNSGGTNYAQKFQGRVTMTRDTSTSTVYMELSSLRSEDTAVYYCARDISSWYEITKFDPWGQGTLVTVSS VL: EIVMTQSPATLSVSPGERATLSCKASQSVSGTYLAWYQQKPGQAPRLLIYGASTRATGIPARFSGSGSGTEFTLTISSLQSEDFAVYYCLQTHSYPPTFGQGTKVEIKR | – | – | – | 72 | 72 | – | – | – | – |
